According to publication PMC3197789:

How the values were obtained:
[1] = tested on: 7HC-STAT3beta, Src-phosphorylated (pY705); assay: EMSA with unlabelled hSIE competition; conditions: not given in the material (Supporting Information not held)
[2] = tested on: wt STAT3beta, Src-phosphorylated (pY705); assay: EMSA with unlabelled hSIE competition; conditions: not given in the material (Supporting Information not held)

Substance: hSIE (high-affinity sis-inducible element) probe
- Kd [1]: 6.8 nM
- Kd [2]: 6.3 nM
